Data: publication PMC3708937, “Function of FlhB, a Membrane Protein Implicated in the Bacterial Flagellar Type III Secretion System” (PLoS ONE, 2013)
Substitutions are numbered along the chain they refer to. Names and notes keep the numbering of the source.

T1: Aquifex FlhBC (C-terminal cytoplasmic domain of Aquifex aeolicus FlhB) (Aquifex aeolicus, UniProt O67813 213-350)
T1 construct: FlhB of Aquifex aeolicus, cytoplasmic domain FlhBC; also called AquFlhBC; source: purified as described previously [14]
T1 sequence (looked up): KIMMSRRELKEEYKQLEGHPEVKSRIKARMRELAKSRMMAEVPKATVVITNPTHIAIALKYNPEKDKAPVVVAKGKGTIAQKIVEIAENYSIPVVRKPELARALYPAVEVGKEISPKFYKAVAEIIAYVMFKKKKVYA

B1: Salmonella FliS (wild type) (natural protein)
chain: MYTASGIKAYAQVSVESAVMSASPHQLIEMLFDGANSALVRARLFLEQGDVVAKGEALSKAINIIDNGLKAGLDQEKGGEIATNLSELYDYMIRRLLQANLRNDAQAIEEVEGLLSNIAEAWKQISPKASFQESR
notes: FliS, flagellin-specific chaperone of Salmonella enterica serovar Typhimurium; also called wild-type FliS
B2: Salmonella FliS A22T (natural protein)
chain: B1 chain with A22T
notes: FliS of Salmonella enterica serovar Typhimurium with the point mutation A22T; The mutation arose as a spontaneous extragenic suppressor in the laboratory strain CB351; expression and purification of the protein are not described; also called FliS mutant A22T; fliS22264(A22T)

Experiments:
[1] = molecular target: T2, Salmonella FliC (flagellin) (Salmonella enterica serovar Typhimurium, UniProt P06179 1-495); assay: SPR; Biacore T100; AquFlhBC or FliC amine-coupled to a CM5 chip; FliS or FliS A22T flowed at 30 µl/min for 12 min; 10 mM HEPES pH 7.4, 150 mM NaCl, 0.05% (v/v) Surfactant P20; 25°C; steady-state analysis, 1:1 binding model; settings: both partners purified
T2 construct: FliC (flagellin), major component of the flagellar filament, Salmonella enterica serovar Typhimurium
T2 sequence (P06179 whole entry): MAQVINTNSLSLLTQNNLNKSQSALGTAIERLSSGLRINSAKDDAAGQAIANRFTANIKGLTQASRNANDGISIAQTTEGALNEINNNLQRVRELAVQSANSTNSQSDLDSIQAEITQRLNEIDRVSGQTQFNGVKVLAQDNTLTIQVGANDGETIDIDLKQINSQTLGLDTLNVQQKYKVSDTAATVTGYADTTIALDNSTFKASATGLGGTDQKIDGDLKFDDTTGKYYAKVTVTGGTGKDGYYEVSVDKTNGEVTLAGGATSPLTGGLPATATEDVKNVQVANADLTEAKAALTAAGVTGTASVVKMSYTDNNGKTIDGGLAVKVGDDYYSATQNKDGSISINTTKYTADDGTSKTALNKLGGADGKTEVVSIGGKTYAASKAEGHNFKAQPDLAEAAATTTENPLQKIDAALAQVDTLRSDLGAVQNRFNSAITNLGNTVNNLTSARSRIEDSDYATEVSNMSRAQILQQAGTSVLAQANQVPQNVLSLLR

[2] = molecular target: T1, Aquifex FlhBC (C-terminal cytoplasmic …); assay: as above; settings: both partners purified

Binder	Kd [1] [µM]	Kd [2] [µM]
B1	0.7	169
B2	11.9	304
